Measured values: patent publication US20060128618A1 (APLAGEN, published 2006)
*1 amine or outer side, *2 acyl side, *3 side chain or, on linkers, in order; H or OH if unused. Bridges are numbered along the chain shown (N, C = ends). Where no end group is shown, it is not given here. [ ]: non-standard residue; d: D form. Als = 5-aminolevulinic acid, O=C(CCC(=O)[*:2])CN[*:1]

T1: erythropoietin receptor (UniProt P19235 25-508, limits assumed)
T1 sequence (looked up): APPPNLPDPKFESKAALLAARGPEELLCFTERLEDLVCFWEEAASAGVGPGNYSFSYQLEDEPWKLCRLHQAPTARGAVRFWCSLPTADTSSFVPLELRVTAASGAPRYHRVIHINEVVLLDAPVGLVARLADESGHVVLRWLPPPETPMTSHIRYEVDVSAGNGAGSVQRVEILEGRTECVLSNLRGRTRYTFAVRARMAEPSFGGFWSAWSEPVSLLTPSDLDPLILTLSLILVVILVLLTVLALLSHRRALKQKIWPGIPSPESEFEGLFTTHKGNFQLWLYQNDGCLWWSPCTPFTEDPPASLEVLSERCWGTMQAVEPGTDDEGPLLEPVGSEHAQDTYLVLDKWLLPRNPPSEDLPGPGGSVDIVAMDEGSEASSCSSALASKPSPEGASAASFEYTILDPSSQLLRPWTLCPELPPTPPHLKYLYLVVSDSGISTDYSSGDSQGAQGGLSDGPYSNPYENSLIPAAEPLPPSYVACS


Target: T1, erythropoietin receptor
Test: cell-based or functional assay

Binder	EC50, proliferation assay with TF-1 cells by MTT [µM]
GGTYSCHFGKLTWVCKPQGG (disulfide 6-15 (inferred)) [peptide SEQ. ID NO. 4 GGTYSCHFGKLTWVCKPQGG]	4.66
GGTYSCHFGRLTWVCKPQGG (disulfide 6-15 (inferred)) [peptide SEQ. ID NO. 5 GGTYSCHFGRLTWVCKPQGG]	5.16
GGTYSCHFGKLTWVCKKQGG (disulfide 6-15 (inferred)) [peptide SEQ. ID NO. 2 GGTYSCHFGKLTWVCKKQGG]	3.28
GGTYSCHFGPLTWVCKKQGG (disulfide 6-15 (inferred)) [peptide GGTYSCHFGPLTWVCKKQGG]	2.52
GGTYSCHFAKLTWVCKKQGG (disulfide 6-15 (inferred)) [peptide GGTYSCHFAKLTWVCKKQGG]	5.04

Continued, values first:

EC50, proliferation assay with TF-1 cells by MTT [µM]	Binder
5	GGTYSCHF[Als]LTWVCKKQGG (disulfide 6-14 (inferred)) [peptide SEQ. ID NO. 8 GGTYSCHF-(Als)-LTWVCKKQGG]
4.97	GGTYSCHFGRLTWVCKKQGG (disulfide 6-15 (inferred)) [peptide SEQ. ID NO. 6 GGTYSCHFGRLTWVCKKQGG]
5.26	GGTYSCHF[Als]LTWVCKPQGG (disulfide 6-14 (inferred)) [peptide SEQ. ID NO. 7 GGTYSCHF-(Als)-LTWVCKPQGG]
